Measurements: PMC6511404
Read-outs that look alike come from different tables or passages of the source.

What was measured:
[1] = target: E. coli enolase, detagged (His tag removed by thrombin) (E. coli); experiment: crystal structure
[2] = target: E. coli enolase, detagged (His tag removed by thrombin) (E. coli); experiment: crystal structure; remark: listed apart in the source

Chain of E. coli enolase, detagged (His tag removed by thrombin) (enzyme) (A1AEW7 2-432): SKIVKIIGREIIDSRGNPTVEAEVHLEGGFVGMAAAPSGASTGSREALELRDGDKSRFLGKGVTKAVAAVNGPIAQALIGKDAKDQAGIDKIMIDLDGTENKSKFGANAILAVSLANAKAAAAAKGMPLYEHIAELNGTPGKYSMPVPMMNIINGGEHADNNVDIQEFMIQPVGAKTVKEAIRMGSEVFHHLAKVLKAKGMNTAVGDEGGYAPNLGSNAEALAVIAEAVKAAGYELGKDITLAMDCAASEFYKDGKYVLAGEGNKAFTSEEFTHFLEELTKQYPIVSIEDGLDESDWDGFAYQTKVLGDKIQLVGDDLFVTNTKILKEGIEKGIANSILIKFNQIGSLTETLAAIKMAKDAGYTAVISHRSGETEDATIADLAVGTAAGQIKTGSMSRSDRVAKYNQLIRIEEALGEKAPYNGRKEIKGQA

stoichiometry N [1]: 6
stoichiometry N [2]: 2
Substance: E. coli enolase, detagged (His tag removed by thrombin) (enzyme)
